Assay: soluble on expression in E. coli; label from the status in PepcDB or PDB records

Question: For “MGSDKIHHHHHHMHRAGDSCTRDRRSRTAWRAALFQPVRRQRPVSEQCVRCCSSNEQWLDVCRYGSGAQGVGGVRHGNCLSPFTFISRLRRSGMTTDTFGGDLPASTLVPQPSFCVQTRVAHDADEQARNLHGWSQTYDQLTAGCFVGGLTELCLDHMQLFVETTSHTLRQTCEVQKDAYWFGIPACAAGSGRIDAQVIAGDALAFRPGGIEFELLTSAGYEIFGVVVKGEVLRRYAAQVERVGLADPVPNTQVVPIGMARKAQLCATLRQLLDDGAARGTPLSSVARNNLQAAVLASLFDVGALPASEPVAMPARPRRQSIVSEARDYVLLNRDRAVSVPELCEQLHVSRRTLQYCFQDVLGMAPATYLRAIRLNGARRDLSNASRESRSVQDVAAAWGFWHLSQFATDYRKLFGMRPSETLKAATGTRVERAGAFNAVALAHH”, which “soluble on expression in E. coli” value is on record?
Answer: Its value is “not soluble”.

Question: For “MGSDKIHHHHHHMHVYESDVSWIDDRRTEVSVGDHRIEVDSPPEFGGPEGQLYPETLFPSVLASCLLTTFLEFKDRMGINLKSWNSHVTAELGPSPEKGFKFHRIKIHVKIGVNDEDKEKIPRAMQLAEKYCFISRAIRNNVEEIVDYEFV”, which “soluble on expression in E. coli” value is on record?
Answer: Its value is “not soluble”.

Question: With “MGSDKIHHHHHHMIACENSGHSIPDDFPEVRKIVEAGVTTNPKKDYELSRYACYLIVQNGDPRKEVIALGQTYFAIQTYRQEVADHFNELDEDNRRLVVRGDIKQWNQMLAETAHNAGVITNEEFAIFQNAGYMGLYGGLDVEGILAAVYQSVFGGDVYLSLEEKVANLLFNEIGNSQVV” as the sequence, how does the “soluble on expression in E. coli” value read?
Answer: Its value is “not soluble”.

Question: For “MGSDKIHHHHHHMIDFSLCEVNKFRAYGGANGNKINILYEGNSYMLKFSPVPSRNKAMSYTNGCISEYLACHIFASLGFKTQETLLGTYTDPRGKEKVVVACGDFTEGGKRLIEFAHLKNTCISSEQNGYGKELSSIMQAIDEQMLLPPDQLRDFFWDMFIADALLGNFDRHNGNWGILVDEQSKTAEIAPVYDCGSCLYPQLAAKDMGDVLNSEDEIDRRVYVFPTSSIEEDGKKISYFEFISSLRNPDCTAALKRVSARIDMEKIRMLIDKTPTLLPVQKEFYTVIISERKAKIIDYSMEKLMKLKGQDLERDEQQNGGLQFTM”, which “soluble on expression in E. coli” value is on record?
Answer: Its value is “not soluble”.

Question: For “MGSDKIHHHHHHMIEIIPAIDIIDGKCVRLSQGDYDSKKVYNENPVEVAKEFEANGVRRLHVVDLDGAASHHVVNHRVLEQIATRTSLIVDFGGGVKSDEDLKIAFESGAQMVTGGSVAVKDPELFCHWLEVYGSEKIILGADVKEHKIAVNGWKDESACELFPFLEDYINKGIQKVICTDISCDGMLKGPSIDLYKEMLEKFPNLYLMASGGVSNVDDIIALNEAGVPGVIFGKALYEGHITLKDLRIFL”, which “soluble on expression in E. coli” value is on record?
Answer: The value was “not soluble”.

Question: Which “soluble on expression in E. coli” value does the source give for “MGSDKIHHHHHHMIFVGCSGWSYEEWNGVFYPKSKINKLKFYSTMFNTVEVNSTFYREINNDIINRWIETVRGKNFIFSIKVPQNITHKAILEKDSNSKSLYETFIDKTVRPIRNARMLGAVLVQLPPSFNSNLQTELLDTICCENEYRTAVEVRNKDLYSNEELRKELEKRGIAIVDVDSTEHPLSNLNSGLKWSYVRLHGRAQLGWKSQNPYDYRYSEQEISDLSSKIMAKNYDEIFVYFNNHPRGSAPINALKMASCLGISNNWFF” here?
Answer: Its value is “not soluble”.

Question: Which “soluble on expression in E. coli” value does the source give for “MGSDKIHHHHHHMIGKRFFQTTSKKIAFAFDIDGVLFRGKKPIAGASDALKLLNRNKIPYILLTNGGGFSERARTEFISSKLDVDVSPLQIIQSHTPYKSLVNKYSRILAVGTPSVRGVAEGYGFQDVVHQTDIVRYNRDIAPFSGLSDEQVMEYSRDIPDLTTKKFDAVLVFNDPHDWAADIQIISDAINSENGMLNTLRNEKSGKPSIPIYFSNQDLLWANPYKLNRFGQGAFRLLVRRLYLELNGEPLQDYTLGKPTKLTYDFAHHVLIDWEKRLSGKIGQSVKQKLPLLGTKPSTSPFHAVFMVGDNPASDIIGAQNYGWNSCLVKTGVYNEGDDLKECKPTLIVNDVFDAVTKTLEKYA” here?
Answer: Its value is “not soluble”.

Question: With “MGSDKIHHHHHHMIHTREEQMEAFGRFLDILDELRVKCPWDRKQTNESLRPNTIEETYELCDALMRDDKKDICKELGDVLLHVAFYAKIGSETGDFDIKDVCDKLCDKLIFRHPHVFGEVKAETAGQVSENWEQLKLKEKDGNKSVLSGVPSALPSLIKAYRIQDKARNVGFDWEEREQVWDKVKEEIREFQVEVANMDKEKAEAEFGDVMFSLINAARLYKINPDNALELTNQKFIRRFNYLEEHTIKEGKNLKDMSLEEMDAIWNEAKRKGL” as the sequence, how does the “soluble on expression in E. coli” value read?
Answer: Its value is “not soluble”.

Question: For “MGSDKIHHHHHHMIIEELHIVNFKSIAAADCRFSPKVNCLVGNNGMGKTNLLDALHFLSFCRSHLSVPDNMVVRHGEEMALLQGLYRDESGDGIELLLSIRPGKHKVLRRNKKEYERLSDHIGRFPLVIVSPQDYQLILGGSDERRRFMDQQLCQQDPRYLSALIQYNRHLQQRNTMLKQDRHDDALMDVLELQMGSYAAEICNKRSRFIEDFLPVFNDLYSDISGSAEKVSLSYRSHLADGIPLEELLRRSRPKDYLLGFSSCGVHKDELEMLLGGVLIRKIGSEGQNKTFLISMKLAQFRHQQLHGDETPILLLDDIFDKLDATRVERIIRLVGGNGFGQIFITDTNRKNLDEIIASWSEDYRLFKIENGQIFQ”, which “soluble on expression in E. coli” value is on record?
Answer: Its value is “not soluble”.

Question: With “MGSDKIHHHHHHMIIENLSQLYPKGYLSKTIGSEATYSIPVDDQFFIVNKAFLSIKEQHLLEALFPISENPTITGNHPWFSYLFQQAKLPAEGTFRMLQIQTNVTKELQAEWQFNLTKMFPDTVDCFSPSNNMYILVEEQSKNTFQQEEIQGIFLTLDTDFDCTSAVFVGNFYSSEDILRRCFHEEQRIFSEELNSSSRTTVFSLTDVALHYFTKEAMSQNVLVEYYRRLLNKDTDIQPIISALWKNQGNISSTAKDLFMHRNTLHYRLEKFFEQTGLSLKKMDDLIFCYLLLRK” as the sequence, how does the “soluble on expression in E. coli” value read?
Answer: Its value is “not soluble”.

Question: With “MGSDKIHHHHHHMIIGNCLILKDFSSEPFWGAVEIENGTIKRVLQGEVKVDLDLSGKLVMPALFNTHTHAPMTLLRGVAEDLSFEEWLFSKVLPIEDRLTEKMAYYGTILAQMEMARHGIAGFVDMYFHEEWIAKAVRDFGMRALLTRGLVDSNGDDGGRLEENLKLYNEWNGFEGRIFVGFGPHSPYLCSEEYLKRVFDTAKSLNAPVTIHLYETSKEEYDLEDILNIGLKEVKTIAAHCVHLPERYFGVLKDIPFFVSHNPASNLKLGNGIAPVQRMIEHGMKVTLGTDGAASNNSLNLFFEMRLASLLQKAQNPRNLDVNTCLKMVTYDGAQAMGFKSGKIEEGWNADLVVIDLDLPEMFPVQNIKNHLVHAFSGEVFATMVAGKWIYFDGEYPTIDSEEVKRELARIEKELYSS” as the sequence, how does the “soluble on expression in E. coli” value read?
Answer: Its value is “soluble”.

Question: Which “soluble on expression in E. coli” value does the source give for “MGSDKIHHHHHHMIKFGEAVLGNEIKAIVNVALGKGELIENTFTNALTRGNCVFANLRPNLIVKPLTLVVPRHNIESEIQDELFQGVIQYAVAKAVADLDLDEDLKVVVSVNVPEVPITNLNKRKLFQYFYASAKLAINRALNEYPSKEKVKKEKYRALHPLVGFRDVRLEYPPYLQIALDVPTMENLEFLLQTIPNSDHIILEAGTPLIKKFGLEVIEIMREYFDGFIVADLKTLDTGRVEVRLAFEATANAVAISGVAPKSTIIKAIHECQKCGLISYLDMMNVSEPQKLYDSLKLKPDVVILHRGIDEETFGIKKEWKFKENCLLAIAGGVGVENVEELLKEYQILIVGRAITKSKDPGRVIRMFINKMGYDIDTYRLYFDEDEDIGEEL” here?
Answer: Its value is “not soluble”.

Question: For “MGSDKIHHHHHHMIKFLYFTDTHIRGTAPKNRLDPFVETLKHKLHEVMEIAETEKVDMLLHGGDVFDRPDLSPNVVGQFAQIFRKTSRPIYAIAGNHDTFGHNPETISRTMLGLLHSFGIIHIIDPQTPVLVEKDGVKVQISGQPYHYDIDQRDPKLDYYPVNVHEADVMVHLVHSMLVEKALPEGIPHTLIDHIWGTSADVLLTGHFHGGFGIKQKDGRYICNPGAIARINNHWTELVRTPTVILGTITKDGIDLKERPLQSAKNGEEVLDRSFLEKSINQEEKLHAFIQQVKEHAEFQSLNMNDVINEIAAMSNVEEPVKQEALRRITVIEEAWKGGEHEYD”, which “soluble on expression in E. coli” value is on record?
Answer: The value was “not soluble”.

Question: For “MGSDKIHHHHHHMIKLAQPQAQRLVLLLAGAVRSVLLYPGSHPAVVQQFAHLGSHVTELLRAYPEVRIGIIDGVLFCENHLFFTPTAAEEELAALLTNRHVEAVAFRAGLTPLELERFVELLTRRELLGEQLVAEVKRAGIAAISVELCGSGATEDHSQGDDEYDPGTTYREALDVVTGLFSEVEKGRIPSSDKLRGVVDRMATMIMQDRATLLGLAMIKDYDNYTFCHSVNVGILSMSLGAAAGLQRDELGELGMAGFLHDVGKTRVEITILNKPGRLSSDEYERMKMHSEEGARIVGEMPGVGERIARAVLGHHIRFDRAGYPESARALAFDRFCDIIAVADCYDAITTLRVYKSPLNPKDALLKLRSLAGSHLDSGLVQAFTEMMGRYPVGTLVRLDTNEVAVVFRPDPNGGERPVVKVVADPAGRLLDPAHMKNLARETGTRIVSVVDPLMTAIDVNRYLG”, which “soluble on expression in E. coli” value is on record?
Answer: Its value is “not soluble”.

Question: For “MGSDKIHHHHHHMILCCGEALIDMLPRETTLGEKGFSPYAGGAVFNTGIALGRLGVASGFFTGLSDDMMGDILRDTLRASHVDFSYCATLSRPTTIAFVKLVDGHATYAFYDENTAGRMITEADLPALGEDCEALHFGAISLIPEPCGSTYEALLNREHKTRVISLDPNIRPGFIKDKAAHMARIRRMAALSDIVKFSDEDLAWFGLDGDEDTLARHWLHHGAKLVVVTRGADGAVGYTADHKVEVPSEKVTVVDTVGAGDTFDAGVLASLKMQNLLTKQQVAKLTEEQIAKALALGSKAAAVTVSRAGANPPFAHEIGL”, which “soluble on expression in E. coli” value is on record?
Answer: Its value is “not soluble”.

Question: For “MGSDKIHHHHHHMILLVGGEKGGAGKSCLAQNIAVHITQKFNANVLMVDCDPQRTTSDWIQARNEDASLPAINCIQLYGKIRNDLLGLDQRFDYVIVDCGGQDNLAMRAAMSVATYVVLPLRPKRRDLKTLPHMEDMLSTCKMVNPKMVATVVMTQCPALPSQYKRILEAKEVVESFGLRVLDAVTFSRNVYDDSEEQGSSVIEIEPDGKAAAEIRAIADELFAIPPENSYELN”, which “soluble on expression in E. coli” value is on record?
Answer: The value was “not soluble”.

Question: For “MGSDKIHHHHHHMINQIYQLTKPKFINVKYQEEAIDQENHILIRPNYMAVCHADQRYYQGKRDPKILNKKLPMAMIHESCGTVISDPTGTYEVGQKVVMIPNQSPMQSDEEFYENYMTGTHFLSSGFDGFMREFVSLPKDRVVAYDAIEDTVAAITEFVSVGMHAMNRLLTLAHSKRERIAVIGDGSLAFVVANIINYTLPEAEIVVIGRHWEKLELFSFAKECYITDNIPEDLAFDHAFECCGGDGTGPAINDLIRYIRPQGTILMMGVSEYKVNLNTRDALEKGLILVGSSRSGRIDFENAIQMMEVKKFANRLKNILYLEEPVREIKDIHRVFATDLNTAFKTVFKWEV”, which “soluble on expression in E. coli” value is on record?
Answer: The value was “not soluble”.

Question: For “MGSDKIHHHHHHMIPFHDRPFAEYLVEMLRGQGFRRILFLLGYLPDKVTEHFGDGSRFGVEIEYAVSPVEDETGTRLRRVKDRLDDIFVLLYCDNYWPMPFAAMWERYCRLGVEAMVTVYRNRDGYTRDNLRVDDDGLLALYDKSRTAPGLAGVDIGFFILTRAVIDLIPEGGNPSFEKSVYPVLVERRQLAAFETDHRYYSVGSHERLPLTEAFLARNKTVLLDRDGTLNLRMPRAEYVRSWADWQWLPGAREALAELARADYRIILITNQPGLARGALDQAALDAIHGRMIEETQAAGGRIDHIYYCPHNWDEGCDCRKPRPGMLFQAQRDFHLDLSRVTFIGDDDRDGEAAQAAGAPFLQVTESYSLLDAVHDLLAADHSNPVTGKCPD”, which “soluble on expression in E. coli” value is on record?
Answer: The value was “not soluble”.

Question: Which “soluble on expression in E. coli” value does the source give for “MGSDKIHHHHHHMIPLFDLTRQYERIRGEILNAIDKLISSGNVILGENVRRLEEEIASFTGVKHGVGVASGSDALLIALRAMGVEKGDTVVTTPYTFFATASAPYRLGARVIFVDVDESTFNMDLNQLEHVLKKEKVKAIIPVHLFGRTVDLEALSFLREKYGVMILEDCAQSMGSEWKFSSGEIRKSGSVGDAAIFSFFPTKNLGTYGDGGMIVTNSDEIAEESRILRVHGARKKYFHEKVGYNSRLDEIHAAILRVKLRYLERWTEERTRVARTYQKLFEEKKLPVVYPRVEEKGFRYHVFHQYVVLFENEEVRERVREGLKERGIQTAIYYPLPLHLQKCFRDLGYQEGDFPVAESLSKRSLALPMFPELRDDEIKEVVDTIALFL” here?
Answer: The value was “not soluble”.

Reference: the DeepSol protein solubility set
